Laboratory results published in publication PMC7093963, “DDX39B interacts with the pattern recognition receptor pathway to inhibit NF-κB and sensitize to alkylating chemotherapy”.

Target: His-DDX39B (UniProt Q13838 1-428)
Test: EMSA; 0-300 ng protein; bound more than -1A; EMSA: bacterially expressed DDX39B, 32P probes, non-denaturing 5% acrylamide gel; binding buffer, salt, pH and temperature not given. Pull-down: U87 nuclear extract pre-cleared with non-specific biotin DNA, 2 h with probe
Conditions: protein: recombinant; tags: N-terminal His (pET-45b, 5' polyhistidine); label: 32P (T4 PNK); blunt

His-DDX39B, sequence (Q13838 whole entry): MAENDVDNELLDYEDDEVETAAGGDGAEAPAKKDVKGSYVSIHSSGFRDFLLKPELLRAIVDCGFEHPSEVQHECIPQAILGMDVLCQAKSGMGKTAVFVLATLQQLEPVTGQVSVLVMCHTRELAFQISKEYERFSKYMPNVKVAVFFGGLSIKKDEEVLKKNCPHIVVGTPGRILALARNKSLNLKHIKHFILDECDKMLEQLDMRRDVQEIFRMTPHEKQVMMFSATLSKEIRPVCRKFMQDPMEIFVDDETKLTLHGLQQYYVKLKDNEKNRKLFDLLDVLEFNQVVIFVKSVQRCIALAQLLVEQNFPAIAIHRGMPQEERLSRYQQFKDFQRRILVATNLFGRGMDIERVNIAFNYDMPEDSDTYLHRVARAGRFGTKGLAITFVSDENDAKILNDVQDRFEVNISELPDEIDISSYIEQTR

B1: -1C kB probe (dsDNA)
DNA 1: TCGAGTTAGATGGGGACTTTCCAGGCAC
DNA 2: GTGCCTGGAAAGTCCCCATCTAACTCGA
binding result: binds
